The target of the assay is Myl12a, biotinylated (murine) (UniProt Q6ZWQ9). In words: BLI. For orientation: BLI is a label-free optical method that tracks binding on a fibre tip over time.

The substance SteC 194 aa–364 aa (domain or fragment) registered a fold decrease of affinity of 10 fold.

Values taken from PMC11021425, “Salmonella manipulates macrophage migration via SteC-mediated myosin light chain activation to penetrate the gut-vascular barrier” (The EMBO Journal, 2024).
